Test results published in the supplement of paper PMC12636428.

Tested on: Saccharomyces cerevisiae
Assay: transcriptional activation domain activity (GFP:mCherry ratio, weighted mean of sorted bins, harmonized to initial dataset scale) (arbitrary fluorescence ratio units); higher = stronger transcriptional activation
Conditions: beta-estradiol 1 µM; induction time 4 h
Outline: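 Sorting into 8 bins by GFP:mCherry ratio followed a 4-hour hold at 30 °C after cultures were diluted 1:5 into SC with 1 uM beta-estradiol. The yeast diploids carried a GFP reporter and had barcoded protein tiles, fused to an estradiol-inducible synthetic transcription factor, integrated at URA3. Barcodes were then sequenced, and tiles with under 50 reads were removed. Activation activity is the read-weighted mean of bin median fluorescence, averaged across barcodes and linearly mapped onto the initial dataset scale.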

Sequence	transcriptional activation domain activity
VLQILAFAMFIICTLTLQLRLRSNPPVQCVAGVVTHYRRYFIALYCTSGLFLI	56600
IAHRYLVGYVYVRTHSQTGGLVYIWLLKRLGSLLSLQPILLGLIFLSRHLWIE	55000
SCTGVFRAYSILIIMVMMLSEVIILFRTCVLIRRERHGHYIICILCFFSLCVL	49600
RIESHLSEREYKLQTFAEFLRVPDNGSLDIESLDSSLIENTLNSHDVTNQALD	26700
ASKRKRTEGESKKKEAKRERPKKKSRRDDDDDASGGDELEGKRSRKPKRASAS	18500
MVQCASTECSNEGVSQCGRCKQRFYCGAECQQKDWPAHKKNCKRPNAPPPQMS	17500
TIHLVNTIQVIVLILDRFLYGIIPLFEIHTCAFFPLLISFWHVSYLLYYVIMF	37200
GSETTQEQRNIEGTDHGSGGGGGGSGEGGGGNEGGGGGGGGGSGGGGKGGGGE	30000
PYSLDIKNTVLDSADLNDIQNQETSLNLGLPPLSFDSPLPVTETIPSTTDNSL	73400
LACIVVCVIVYVVLTLLPLFYRDCPYLTPMSGPLWRFLQAFQFVSIVSFRRIY	41900
RLWQLILCKLEHFHLGFFLLGSVNNIYFTYKILNDMFDIVLLGQDQQDNDDEL	60000
DDEHEDRHREGRGSRGDRTRSASADSKHRSSRRDKEKHRSSRSHRDRSKEQRR	37400
VREEPTAFFFVVFGLVYETLVTSVPDSDAAAHRTSIVALKALKCLVQEKYCGK	46200
VGLYSLCIVSGILFPLYICCWREDFLIQNFVHRSLFTLVFMLLFLLGLIFLEF	56900
AIRRSFAHVFCLCCIMEFPTFILGLGSLYPSLRSNVFFALSFFATRIVLHLML	65700
PNSTGDDPSRLRRAHRKSPGGCQSCKRRRVKCDEKVSCSNCRRRREHCHAGQQ	56900
ALCRVAARALDTVRMLSTKVRLMLVHAFRRLEPLDVAFQSRSAVPMMSLGIQL	66600

Sequence	transcriptional activation domain activity
MGFKLLLLLPYCTPRLIFKKLLLWLRFFFFLHFLFLPRRTLKNLAPCIFFLLY	40900
STIHNLFEVVLLPDLCGFCCFSMRFVVLVDLVGTLTLPVTVVYLIYLIYVIAS	54400
NGEDAAPAAEPAGTSTADAVGGTTALPAAYRLKAFISHKGPSVHSGHYVVHIR	52700
ESGCGREDMTVKSGIVFSFYFFCCLFFFLLSLFVCFPPPFFFILLFPIFIHLY	18900
AAQKFVSDIAADAYQYARVRTNATTGGRSKAEKNAQGGSSAAAKDKSKTVLTL	29700
ALYLWTRHVGFANFVKLYFVPFMCVNHWIVMLTYLHHCDPTIPYFRRTQWSFL	30800
MITVLSVIPLLLLLLLLLLLLLLLLLLLLISPLFRLGSLFVFCPYILFRLWWV	42000
HHTHHSSSTDWSRAFRKWSVRLLLAIAFPTTYLLGAAMPPKIILMLYPRYSPP	39100
MYYILMFLIYTCQLLLLLINLHWLAVACDTFPSWPLMQTNFYFCLLLLVTLFR	31900
HVLEYACSIAISRQQERRKRKAIRKSESLNALAKALLRLLSVFSTIRLASGQL	91500
EAQAEEEVAPAPKPRGRPRRAAAEAPAPEISKPTTRGRAKKVEAPAEDVIVVE	24100
MLYRVYLDIFFFLYCLFVLGAFQDTRRFLFKFWAFPLLKVWQVVTIHLTCTQY	61800
DAYLLWGPGFIPTVCHIHDFPLLLPVAIFLVYINLSSCHLDPLISFLFLPLFG	66500
MMSGGMAYQVLFLYLLGYRLFYPRYFLFHSMFLFFIYCYMRCCPFRFTTILID	58000
GIHETLSFYFVFVCFLYGLRSMALMIGLTGALFLLFMDMLVFGMATAVLIDYG	50700
MRILGCVVNAHLKQMIHRNSLLIIPECPRMFWLGCQTRCVVLGEWIGLHANRF	69300
LPQMGVPGEPLTLLVEFADMLIEMWHQCLAQRYYGPIYHLVALIVYTLELNAT	54200
